Laboratory results taken from patent publication US20260008815A1, “CYCLIC PEPTIDE OR SALT THEREOF, AND USES THEREOF” (FUJIFILM Corporation, priority 2023, published 2026).
Bridge positions count the residues as written; N and C are the ends. Ends that are not written are not given here. COCH2 = acetyl group that carries the bridge

B1: cyclic peptide SEQ ID NO: 49 (peptide)
peptide: SCQGNWISNTQFRYFIAYK(COCH2)T
modifications: thioether 2-19 (inferred); not fully specified (residue 1); printed as s-(C)-QGNWISNTQFRYFIAY-(K(acetyl))-T

What follows are binders tested against T1, Recombinant Human FGFR2 alpha (IIIc) Fc Chimera Protein, CF (R&D systems, 712-FR-050) (human, UniProt P21802 22-377) (assay: ELISA on plate-bound FGFR2-Fc).
T1 construct: bought; not shown: Fc part of the chimera
T1 sequence (P21802 22-377, change not shown): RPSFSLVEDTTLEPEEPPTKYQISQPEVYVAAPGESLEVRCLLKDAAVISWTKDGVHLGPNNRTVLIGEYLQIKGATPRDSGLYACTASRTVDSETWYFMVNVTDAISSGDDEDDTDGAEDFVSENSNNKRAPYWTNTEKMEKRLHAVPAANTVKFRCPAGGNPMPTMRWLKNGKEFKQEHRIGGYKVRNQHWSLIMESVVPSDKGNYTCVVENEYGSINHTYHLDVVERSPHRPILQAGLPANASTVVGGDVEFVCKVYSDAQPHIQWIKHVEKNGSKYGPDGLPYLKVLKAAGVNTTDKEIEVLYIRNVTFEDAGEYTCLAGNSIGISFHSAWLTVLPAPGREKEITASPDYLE
Outline: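 Peptide binding scored by category from dose-response of background-corrected luminescence (FGFR-coated minus uncoated wells). Detection via anti-Myc antibody (2 h, room temperature) after 3 h peptide incubation on wells coated with 5 ng FGFR2 alpha (IIIc)-Fc.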

Q: With QCYYLYWYLYK(COCH2)I (thioether 2-11) [cyclic peptide SEQ ID NO: 361] as the binder, how does the “ELISA luminescence signal at 10 nmol/L peptide, relative to SEQ ID NO: 47 (=1)” value read?
A: 0.1 to 0.5 ratio

Q: ACGQNFYHPVQFHYFIAYK(COCH2)Q (thioether 2-19 (inferred)) [cyclic peptide SEQ ID NO: 50] was tested. Which “ELISA luminescence signal at 10 nmol/L peptide, relative to SEQ ID NO: 47 (=1)” value did it give?
A: ≥ 0.7 ratio

Q: With GCYWNEVQYYYLQQYK(COCH2)Q (thioether 2-16 (inferred)) [cyclic peptide SEQ ID NO: 48] as the binder, how does the “ELISA luminescence signal at 10 nmol/L peptide, relative to SEQ ID NO: 47 (=1)” value read?
A: ≥ 0.7 ratio

Q: How did the “ELISA luminescence signal at 10 nmol/L peptide, relative to SEQ ID NO: 47 (=1)” value turn out when B1 was run?
A: ≥ 0.7 ratio

Q: TCPQNFINPVQWRYFQHYK(COCH2)N (thioether 2-19 (inferred)) [cyclic peptide SEQ ID NO: 82] was tested. Which “ELISA luminescence signal at 10 nmol/L peptide, relative to SEQ ID NO: 47 (=1)” value did it give?
A: ≥ 0.7 ratio

Q: For QCPQGFINPVQWRYFQHYK(COCH2)N (thioether 2-19) [cyclic peptide SEQ ID NO: 95], which “ELISA luminescence signal at 10 nmol/L peptide, relative to SEQ ID NO: 47 (=1)” value is on record?
A: 0.1 to 0.5 ratio

Q: QCPQNFINPVQWRYYQHYK(COCH2)N (thioether 2-19 (inferred)) [cyclic peptide SEQ ID NO: 89] was tested. Which “ELISA luminescence signal at 10 nmol/L peptide, relative to SEQ ID NO: 47 (=1)” value did it give?
A: 0.5 to 0.7 ratio

Q: Which “ELISA luminescence signal at 10 nmol/L peptide, relative to SEQ ID NO: 47 (=1)” value does the source give for QCPQNFINPVQHRYFQHYK(COCH2)N (thioether 2-19) [cyclic peptide SEQ ID NO: 106] here?
A: ≥ 0.7 ratio

Q: Which “ELISA luminescence signal at 10 nmol/L peptide, relative to SEQ ID NO: 47 (=1)” value does the source give for QK(COCH2)PQNFINPVQWRYFQHYCN (thioether 2-19) [cyclic peptide SEQ ID NO: 399] here?
A: 0.1 to 0.5 ratio

Q: Which “ELISA luminescence signal at 10 nmol/L peptide, relative to SEQ ID NO: 47 (=1)” value does the source give for QCPQNFINPVQWRYRQHYK(COCH2)N (thioether 2-19 (inferred)) [cyclic peptide SEQ ID NO: 90] here?
A: 0.1 to 0.5 ratio

Q: Which “ELISA luminescence signal at 10 nmol/L peptide, relative to SEQ ID NO: 47 (=1)” value does the source give for QCPQHFINPVQWRYFQHYK(COCH2)N (thioether 2-19) [cyclic peptide SEQ ID NO: 100] here?
A: 0.1 to 0.5 ratio

Q: Which “ELISA luminescence signal at 10 nmol/L peptide, relative to SEQ ID NO: 47 (=1)” value does the source give for QCPQTFINPVQWRYFQHYK(COCH2)N (thioether 2-19) [cyclic peptide SEQ ID NO: 98] here?
A: 0.1 to 0.5 ratio

Q: With QCPQSFINPVQWRYFQHYK(COCH2)N (thioether 2-19) [cyclic peptide SEQ ID NO: 97] as the binder, how does the “ELISA luminescence signal at 10 nmol/L peptide, relative to SEQ ID NO: 47 (=1)” value read?
A: 0.1 to 0.5 ratio

Q: For QCPQNFINPVQWRYFQHSK(COCH2)N (thioether 2-19) [cyclic peptide SEQ ID NO: 94], which “ELISA luminescence signal at 10 nmol/L peptide, relative to SEQ ID NO: 47 (=1)” value is on record?
A: 0.1 to 0.5 ratio

Q: Which “ELISA luminescence signal at 10 nmol/L peptide, relative to SEQ ID NO: 47 (=1)” value does the source give for QCPQNFINPVQWRYFQHFK(COCH2)N (thioether 2-19) [cyclic peptide SEQ ID NO: 92] here?
A: ≥ 0.7 ratio

Q: QCPQNFINPVQYRYFQHYK(COCH2)N (thioether 2-19) [cyclic peptide SEQ ID NO: 104] was tested. Which “ELISA luminescence signal at 10 nmol/L peptide, relative to SEQ ID NO: 47 (=1)” value did it give?
A: 0.5 to 0.7 ratio

Q: QCPQNFINPVQIRYFQHYK(COCH2)N (thioether 2-19) [cyclic peptide SEQ ID NO: 101] was tested. Which “ELISA luminescence signal at 10 nmol/L peptide, relative to SEQ ID NO: 47 (=1)” value did it give?
A: 0.1 to 0.5 ratio

Q: For QCPQNFINPVQSRYFQHYK(COCH2)N (thioether 2-19) [cyclic peptide SEQ ID NO: 105], which “ELISA luminescence signal at 10 nmol/L peptide, relative to SEQ ID NO: 47 (=1)” value is on record?
A: 0.1 to 0.5 ratio

Q: QCPQNFINPVHWRYFQHYK(COCH2)N (thioether 2-19 (inferred)) [cyclic peptide SEQ ID NO: 87] was tested. Which “ELISA luminescence signal at 10 nmol/L peptide, relative to SEQ ID NO: 47 (=1)” value did it give?
A: ≥ 0.7 ratio

Q: How did the “ELISA luminescence signal at 10 nmol/L peptide, relative to SEQ ID NO: 47 (=1)” value turn out when QCPQEFINPVQWRYFQHYK(COCH2)N (thioether 2-19) [cyclic peptide SEQ ID NO: 99] was run?
A: 0.1 to 0.5 ratio

Q: With QCPQYFINPVQWRYFQHYK(COCH2)N (thioether 2-19) [cyclic peptide SEQ ID NO: 96] as the binder, how does the “ELISA luminescence signal at 10 nmol/L peptide, relative to SEQ ID NO: 47 (=1)” value read?
A: 0.1 to 0.5 ratio

Q: For HCPQNFINPVQWRYFQHYK(COCH2)N (thioether 2-19 (inferred)) [cyclic peptide SEQ ID NO: 86], which “ELISA luminescence signal at 10 nmol/L peptide, relative to SEQ ID NO: 47 (=1)” value is on record?
A: ≥ 0.7 ratio

Q: With QCPQNFINPVQVRYFQHYK(COCH2)N (thioether 2-19) [cyclic peptide SEQ ID NO: 102] as the binder, how does the “ELISA luminescence signal at 10 nmol/L peptide, relative to SEQ ID NO: 47 (=1)” value read?
A: 0.1 to 0.5 ratio

Q: With QCPQNFINPVQFRYFQHYK(COCH2)N (thioether 2-19) [cyclic peptide SEQ ID NO: 103] as the binder, how does the “ELISA luminescence signal at 10 nmol/L peptide, relative to SEQ ID NO: 47 (=1)” value read?
A: 0.5 to 0.7 ratio

Q: Which “ELISA luminescence signal at 10 nmol/L peptide, relative to SEQ ID NO: 47 (=1)” value does the source give for ECPQNFINPVQWRYFQHYK(COCH2)N (thioether 2-19 (inferred)) [cyclic peptide SEQ ID NO: 84] here?
A: ≥ 0.7 ratio

Q: For QCPQNFINPVQWRYFQHVK(COCH2)N (thioether 2-19) [cyclic peptide SEQ ID NO: 91], which “ELISA luminescence signal at 10 nmol/L peptide, relative to SEQ ID NO: 47 (=1)” value is on record?
A: 0.1 to 0.5 ratio

Q: How did the “ELISA luminescence signal at 10 nmol/L peptide, relative to SEQ ID NO: 47 (=1)” value turn out when QCPQNFINPVQWRYLQHYK(COCH2)N (thioether 2-19 (inferred)) [cyclic peptide SEQ ID NO: 88] was run?
A: ≥ 0.7 ratio

Q: How did the “ELISA luminescence signal at 10 nmol/L peptide, relative to SEQ ID NO: 47 (=1)” value turn out when DCPQNFINPVQWRYFQHYK(COCH2)N (thioether 2-19 (inferred)) [cyclic peptide SEQ ID NO: 83] was run?
A: ≥ 0.7 ratio

Q: Which “ELISA luminescence signal at 10 nmol/L peptide, relative to SEQ ID NO: 47 (=1)” value does the source give for QCPQNFINPVQWRYFQHWK(COCH2)N (thioether 2-19) [cyclic peptide SEQ ID NO: 93] here?
A: ≥ 0.7 ratio

Q: Which “ELISA luminescence signal at 10 nmol/L peptide, relative to SEQ ID NO: 47 (=1)” value does the source give for RCPQNFINPVQWRYFQHYK(COCH2)N (thioether 2-19 (inferred)) [cyclic peptide SEQ ID NO: 85] here?
A: ≥ 0.7 ratio

Q: Which “ELISA luminescence signal at 10 nmol/L peptide, relative to SEQ ID NO: 47 (=1)” value does the source give for VCHSNFLSAVQYAYFYQYK(COCH2)H (thioether 2-19 (inferred)) [cyclic peptide SEQ ID NO: 51] here?
A: ≥ 0.7 ratio

Q: How did the “ELISA luminescence signal at 10 nmol/L peptide, relative to SEQ ID NO: 47 (=1)” value turn out when VCNENNWSRSQYHFFLQYK(COCH2)Y (thioether 2-19 (inferred)) [cyclic peptide SEQ ID NO: 52] was run?
A: 0.1 to 0.5 ratio
